Reference: the nanobody polyreactivity screen of Harvey et al. (2022)

Test: yeast display, Sf9 membrane polyspecificity reagent, FACS + sequencing; frameworks hold sequencing errors
How it was run: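 Nanobodies came from a synthetic yeast display library in Saccharomyces cerevisiae BJ5465, induced with galactose for 36–48 hours and stained for 1 hour at 4 °C with 10% biotinylated, detergent-solubilized Sf9 membrane reagent. Cells were enriched on streptavidin microbeads and then FACS-sorted, with low and high (top ~1%) gates set on anti-HA fluorescence for expression and streptavidin fluorescence for reagent binding. Each polyreactivity label reflects the gate a clone came from. Genes were amplified by colony PCR, sequenced by MiSeq 2 × 250 and filtered by CDR length.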
With “QVQLVESGGGLDQAGGSLRLSCAASGFTFYPYAMGWYRQAPGKERELVASITSAGGTNYADSVKGRFTISRDNAKNTVYVQLNSLKPEDTAVYYCAAKYRSRGPDYYFNSDYWGQGTQVTVSS” the “polyreactivity (PSR sort gate)” value was “low polyreactivity”. In the case of “QVQLVESGGGLVQAGGSLRLSCAASGFTFSDYVMGWYRQAPGKERELVAVITSGSSTYYADSVKGRFTISRDNAKNTVYLQMNSLKPEDTAVYYCNADPDDGYFSDFDYWGQGTQVTVSS”, the “polyreactivity (PSR sort gate)” value was “low polyreactivity”. In the case of “QVQLVESGGGLVQAGGSLRLSCAASGLIFLYYAMGWYRQAPGKERELVAAISSSGSTYYADSGKGRFTISRDNAKNTVYLQMNSLKPEDTAVYYCAAAGYLYPYRYYYWGQGTQVTVSS”, the “polyreactivity (PSR sort gate)” value was “high polyreactivity”. With “QVQLVESGGGLVQAGGSLRLSCAASGSIFDRNAMGWYRQAPGKERELVASISYSGGTTYADSVKGRFTISRDNAKNTVYLQMNSLKPEDTAVYYCNAGGVYPRFTFLEQGYEMDYWGQGTQVTVSS” the “polyreactivity (PSR sort gate)” value was “low polyreactivity”. In the case of “QVQLVESAGGLVQAGGSLRLSCAASGFTFDYYAMGWYRQAPGKERELVASITFIGGNTNYADSVKGRFTISRDNAKTTVYLQMNSLKPEDTAVYYCAADFPWDYRYWFEYWGQGTQVTVSS”, the “polyreactivity (PSR sort gate)” value was “low polyreactivity”. With “QVQLVESGGGLVQAGGSLRFSCAASGRIFVNYAMGWYRQAPGKEREFVAAITSSGGSTYYADSVKGRFTISRDNAKNTVYLQMNSLKPEDTAVYYCAARGSLGGWGLRYYWGQGTQVTVSS” the “polyreactivity (PSR sort gate)” value was “high polyreactivity”. With “QVQLVESGGGLVQAGGSLRFSCAASVFTFYSYAMGSDSQSPGKESEFVAAINQTSGSTTYADSVKGRFTISRDYGKNTVYLKMISLKPEDTAVYYCNAYQYYERYDTYLFRYDYWGQGTQVTVSS” the “polyreactivity (PSR sort gate)” value was “low polyreactivity”. With “QVQLVESGGGLVQAGGSLRLSCAASGNTFRWYAMGWYRQAPGKEREFVADITVRGGSTYYADSVKGRFTISRDNAKNTVYLQMNSLKPEDTAVYYCASYHYYTYDYWGQGTQVTVSS” the “polyreactivity (PSR sort gate)” value was “low polyreactivity”. In the case of “QVQLVESGGCLVQAGGSLRLSCAASGIIFTYYAMGWSRQAPGKESELVARISSSGGRTYYADSVKGRVTISRDNGKNTVYLQMNSLNPEDTAVYYCAAAIVSYGRNDYWGQGTQVTVSS”, the “polyreactivity (PSR sort gate)” value was “high polyreactivity”. For “QVQLVESGGGVVQAGGTLLLICAASGSTFIVNAMVWYRQAPRKERELVAAITGSGGNTYYADSVKGRFTISRDNAKNTVYLQINTLKPEDTAVYYCAAETYYGRIYWYIRDYWGQGTQVSVSS”, the “polyreactivity (PSR sort gate)” value was “low polyreactivity”. With “QVQLVESGGGLVQAGGSLRLSCAASGSTFTRYAMGWYRQAPGKEREFVAAINWSGTSTYYADSVKGRFTISRDTAKNTVYLQMNSLKPEDTAVYYCNAYTVRSYRFDYWGQGTQVTVSS” the “polyreactivity (PSR sort gate)” value was “high polyreactivity”. In the case of “QVQLVESGGGIVQAGGSLRLSCAASGRIFRINGMGWYRQAPGKEREFVAAITSGGGTYYADSVKGRFTISRDNAKNTVYLQMNSLKAEDTAVFYCAVRRRYGDDYWGHGTQVTVSS”, the “polyreactivity (PSR sort gate)” value was “high polyreactivity”. With “QVQLVESGGGLVQAGGSLRLSCAASGSIFGRNAMGWYIQAPGKERELVAAINSGGSTNYADSVKGRFTISRDNAKNTVYLQMNSLKPEDTAVYFCAARTYSSGRYYGYVAFYYWGQGTQVTVSS” the “polyreactivity (PSR sort gate)” value was “high polyreactivity”. With “QVQLVESGGGLVQAGGSLRLSCAAYGFFFPFYTMGWYRQAPGKERELVAAIRYSAGRTYYADSVKGRFTISRDNAKNTVYLQMNSLKPEDTAVYYCAADAIYSRAWGFDYWGQGTQVTVSS” the “polyreactivity (PSR sort gate)” value was “high polyreactivity”. For “QVQLVDSGGGLVQAGGSLRLTSAASGRIFVRNAMGWYRPAPGKERELVAASSWSSGGTYYADSVKGRFTISRDNAKNRVYLQMNSLKPEETAVYSCIADTSRAGVYWGQGTQVTVSS”, the “polyreactivity (PSR sort gate)” value was “low polyreactivity”. With “QGQLVESGGGLVQAGGSLRLKCAASVFTFQFYDMGWYRQAPGKEMEFVATITWRAGSTYYADSVKGRFTISRDNAKNTVYLQMNSLKPEDTAVYYCIADYYRHSLDYDYVGYDYWGQGTQVTVSS” the “polyreactivity (PSR sort gate)” value was “low polyreactivity”. In the case of “QVQLVESGGGLVQAGGSLRLSCAASGSIFSFYAMVWYRQAPGKERELVADISLTTDSTYADSVKGRFTISRDNAKNTVYLQMNSLKPEDTAVYYCAADFFGTITWYDYWGQGTQVTVSS”, the “polyreactivity (PSR sort gate)” value was “low polyreactivity”. For “QDQLVESGGGLVQAGGSLRLSCPASGHTFAKYAMGWYRQAPGKERELVAAISSGGDTYYADSVKGRFTISRDNAKNTVYLQMNSLIPEDTAVYYCAATSICGSWSFWSPGEYRHYDYWGQGTQVTVSS”, the “polyreactivity (PSR sort gate)” value was “low polyreactivity”. With “QVQLVESGGGLVQAGGSLRLSCAASGPTFRANAMGWYRQAPGKEREMVAAISQRGGNTYYADSVKGRFTISRDKAKNTVYLQMNSLKPEDTAVYYCSADITTYRRGRYEYEYWGQGTQVTVSS” the “polyreactivity (PSR sort gate)” value was “high polyreactivity”. With “QVQLVESGGGLVQAGGSLRLSCAASGRTYYWYAMGWYRQAPGKERELVAAISSGGSTYYADSVKGRFTISRDNAKNTVSLQMISLKPEDTAVYYCAAYPQAYIADYDYWGQGTQVTVSS” the “polyreactivity (PSR sort gate)” value was “low polyreactivity”. With “QVQLVESGGGLVQAGGSLRLSCAASGSIILVYAMGWYRQAPGKERELVAGINSSGTSTYADSVKGRFTISRDNAKNTVYLQMNSLKPEDTAVYYCATPGIYYEMDYWGQGTQVTVSS” the “polyreactivity (PSR sort gate)” value was “low polyreactivity”. For “QVQLVESGGGLVQAGGSLRLTCAASGSTFEVYAMGWYRQAPGKEREFVAAITVDGGSTYYADSVKGRFTISRDNAKNTVYLQMNSLKPEDTAVYYCAADSGSWEYYYWGQGTQVTVSS”, the “polyreactivity (PSR sort gate)” value was “low polyreactivity”. In the case of “QVQLVESGGGLVQAGGSLRLSCAASGSTFGKNAMGWYRQAPGKERELVAAITSSGGRTYYADSVKGRFTISRDNAKNTVYLQMNSLKPEDTAVYYCNAVTRRRSLGPWPVEYDYWGQGTQVTVSS”, the “polyreactivity (PSR sort gate)” value was “high polyreactivity”. In the case of “KVQLVESGGGLVQAGGRLRLSCAASGGTFVINVMGWYRQAPGKERELVAAISWNGDSTYYADSVKGRFTISRDNAKNTVYLQMNSLKPEDTAVYYCATDTWRVYYAYWQFGVWELGYWGQGTQVTVSS”, the “polyreactivity (PSR sort gate)” value was “low polyreactivity”. With “QVQLVESGGGLVQAGGSLRLSCAASGFIFYRYAMGWYRQEPGKERELVASINYSGGRTYYADSVKGRFTISRDNAKNTVYLQMNSLKPEDTAVYYCNARYKSTYYYWGQGTQVTVSS” the “polyreactivity (PSR sort gate)” value was “high polyreactivity”. For “QVQLVESGGGLVQAGGSLRLSCSASGRFYVINYMGRYRQAPGKERELVAANTWGSSTYADSEKGRFTISRDNAKITVYFQMNSLKQEDTAVYYCSRDVYPSTWEYDYWGQGTQVTVSS”, the “polyreactivity (PSR sort gate)” value was “low polyreactivity”. With “QVQLVESGAGLVQAGVSLRLSCAASGRTFPYYAMGWYRQAPGKERELVARITYSGGSTYADSVKGRFPISRDNAKNTVYLQMNSLKPEDTAVYFCAAQYYAYLLDGYHRYDYWGLGTQVTVSS” the “polyreactivity (PSR sort gate)” value was “high polyreactivity”. With “QVQLVESGGGLVQAGGSLRLSCSASGSTFPPNAMGWYRQAPGKERELVAVISYSDGSTYYADSVKGRFTISRDNAKNTVYLQMNSLKPEDTAVYYCAAYSGYGGVSMYYWGQGTQVTVSS” the “polyreactivity (PSR sort gate)” value was “low polyreactivity”. For “QVQLVESGGGLVQAGGSLRLSCAASGSTFTRNTMGWYKQAPGKERELVAAISRRGGRTDYADSVKGRFTISRDNAKNTVYLQMNSLKPEDTAVYYCAADPITVDQNPRYGYWGQGTQVTVSS”, the “polyreactivity (PSR sort gate)” value was “high polyreactivity”. For “QVQLVESGGGLVQAGGSLRLSCAASGSIFGPNAMGWYRQAPGKERELVAAISKSGSSTYYADSVKGRFTISRDNAKNTVYLQMNSLKREDTAVYYCAAKVSYSGVFSYYYWGQGTQVTVSS”, the “polyreactivity (PSR sort gate)” value was “high polyreactivity”. In the case of “QVQLVESGGGLVQAGGSLRLSCAASGSTFTRNAMGWYRQAPGKERELVATISSGGSTNYADSVKGRFTISRDNAKNTVYLQMNSLKPEDTAVYYCDKRSLYRYYYWGQGTQVTVSS”, the “polyreactivity (PSR sort gate)” value was “high polyreactivity”. In the case of “QVQLVESGGGLVQAGGSLRLSCAASGFIFDYYAMGWYRQAPGKERELVATISSSGGSTYYADSVKGRFTISRDYAKKTVYLQMNSLKPEDTAVYYCATGYTWVADSWEYYYWGQGTQVTVSS”, the “polyreactivity (PSR sort gate)” value was “low polyreactivity”. For “QVQHVESRGGLVQAGGSLRLSCAASGSTFGVYAMGRYRQAPGKERELDASISSGGRTKYADSVKGRFTISRDNAKNTVYLQMNSLKPEDTAVYFCAARIRYLGVRDNDNYYCGQGTQVTVSS”, the “polyreactivity (PSR sort gate)” value was “low polyreactivity”. In the case of “QVQLVESGVGLVQAGGSLRLSCAASGIIFYEYAMGWNRQAPWKERELVATITSGGSTNYADSVKGRFTISRDNAKNTVYLQMNSLKPEDTAVYYCNADWWWGYGYWGQGTQVTVSS”, the “polyreactivity (PSR sort gate)” value was “low polyreactivity”. With “QVQLVESGGGLVQAGGSLRLSCAASGRILQFYAMGWYRQAPGKERELVATIRVGGGSTYYADSVKGRFTISRDNAKNTVYLQMYSLKPEDTAVYYCAVRQLYSYPGDRRGYYWGQGTQVTVSS” the “polyreactivity (PSR sort gate)” value was “low polyreactivity”. In the case of “QVQLVESGGGLVQAGGSLRLSCAASGRIFYFYPMGWYRQAPGKERELVAAISTSGGSTYYADSVKGRFTISRDNAKNTVYLQMNSLKPEDTAVYYCAARFRYYVSEYDYWGQGTQVTVSS”, the “polyreactivity (PSR sort gate)” value was “low polyreactivity”. In the case of “QVQLVDSGGGLVQAGGSLLLSCSASGSIFFSYAMGLYRQAPGKEREFVAAINSDDASTYADSVKGRFTISRDNAKNTVYLQMNSLKPEDTAVYYCAASFLWSWYDYWGQGTQVTVSS”, the “polyreactivity (PSR sort gate)” value was “low polyreactivity”. With “QVQLVESGGGLVQAGGSLRISCAASGSIFASNAMGWYRQAPGKEREFVAAITWRTDRTYYADSVKGRFTISRDNAKNTVYLQMNSLKPEDTAVYYCAADTWFYRFYYWGQGTQVTVSS” the “polyreactivity (PSR sort gate)” value was “high polyreactivity”. In the case of “QVQLVESGGGLVQAGGSLRLSCASSGSIGYYAMGWYRQAPGKERELVAAIDWSGGDTYYADSVKGRFTISRDNAKNTVYLQMNSLKPEDTAVYYCAADAGRYLPDCTYDYWGQGTQVTVSS”, the “polyreactivity (PSR sort gate)” value was “low polyreactivity”. In the case of “QVQLVESGGGLVQAGGSLRLSCAASGNTFTRNAMGWYRQAPGKERELVAAISYSGGSTYYADSVKGRFTISRDNAKNTVYLQMNSLKPEDTAVYYCATKYYDRFSPYRGDYWGQGTQVTVSS”, the “polyreactivity (PSR sort gate)” value was “low polyreactivity”. For “PVQIVESGGGLVQAGGSLRLSCAASGFTFYSNAMGWYRQAPGKEWEMVAAISFSGTRTYYADSVKGRFTISRDNEKNTVYLQMNSLKPEDTAVYYCNAVAYNYPRTYDYWGQGTQVTVSS”, the “polyreactivity (PSR sort gate)” value was “high polyreactivity”. With “QVQLVESGGGLVQAGGSLRLSCAASGFIFVFNTMGWYRQAPGKERELVAAISVSGDSTYADSVKGRFTISRDNAKNTVYLQMNSLKPEDTAVYYCNAGSTELGWTWELDYWGQGTQVNVSS” the “polyreactivity (PSR sort gate)” value was “high polyreactivity”. For “QVQLVESGGGLVQAGGSLRLSCAASGYTFGTYDMGWYRQAPGKERELVAAISIGGSTNYADSVKGRFTISRDNEKNTVYLQMNSLKPVDTAVYYCAAEVNVGTLLLSVIVEDGDYWGQGTQVTVSS”, the “polyreactivity (PSR sort gate)” value was “low polyreactivity”.
